2 molecules from publication PMC4552487 (2015) can be followed below.

In this test the target is T1, Parkin (80-465)-Biotin, wild type (UniProt O60260 80-465, biotin (position not given)).
T1 chain: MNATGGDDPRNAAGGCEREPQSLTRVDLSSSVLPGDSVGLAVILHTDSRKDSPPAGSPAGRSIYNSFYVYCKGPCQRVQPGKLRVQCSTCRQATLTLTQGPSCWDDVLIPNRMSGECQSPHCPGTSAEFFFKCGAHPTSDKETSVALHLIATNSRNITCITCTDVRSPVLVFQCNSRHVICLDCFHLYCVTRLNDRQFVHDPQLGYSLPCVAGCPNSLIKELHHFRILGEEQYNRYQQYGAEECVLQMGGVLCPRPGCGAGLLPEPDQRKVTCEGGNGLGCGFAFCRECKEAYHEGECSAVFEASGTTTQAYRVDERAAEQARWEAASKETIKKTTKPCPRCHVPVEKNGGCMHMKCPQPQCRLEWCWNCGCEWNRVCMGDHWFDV
Kind of test: competition with GST-Ubl (AlphaScreen). In general terms: Alpha assays give light when donor and acceptor beads are brought close together.

Broadly, the IC50 is the concentration that inhibits the measured activity by half.

B1: Ubl (protein)
chain: MIVFVRFNSSHGFPVEVDSDTSIFQLKEVVAKRQGVPADQLRVIFAGKELRNDWTVQNCDLDQQSIVHIVQRPWRK
Turning to B1, the IC50 worked out at 134 nM.

B2: Ser65-phosphorylated Parkin Ubl domain (residues 1-76) (Ubl^Phospho-Ser65) (domain or fragment)
chain: MIVFVRFNSSHGFPVEVDSDTSIFQLKEVVAKRQGVPADQLRVIFAGKELRNDWTVQNCDLDQQSIVHIVQRPWRK
modifications: phosphoserine at 65
Molecule B2 had a half-maximal inhibitory concentration (IC50) of more than 2530 nM.
